± gives the standard deviation.
Assay: protein stability index of a GFP-peptide fusion (GPS, HEK-293T) (PSI 1-6); higher = more stable
Settings: c terminus: a fixed tail appended
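Also: 24-mer peptide tiles fused after GFP, lentivirally expressed, FACS-sorted into six equal bins by GFP/DsRed ratio, decoded by Illumina sequencing, PSI is the read-weighted mean bin number.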

Row | Sequence | protein stability index (treatment: DMSO) | protein stability index (treatment: MLN4924 1 uM, 8 h)
1 | QCKEWQVLMCGFPFLLLFLGNFFT [TMEM120A] | 2.81 ± 0.053 | 2.92 ± 0.53
2 | EQSLLSRWNPWSTEVPYATFTEHP [TPRG1] | 3.13 ± 0.22 | 3.06 ± 0.16
3 | VFCPLDPPPPYEAVVSQMDQEQGS [FAM189A2] | 4.65 ± 0.13 | 4.76 ± 0.2
4 | AYQQGVGYQMLGNVVTIGLAFFPF [PHTF1] | 2.93 ± 0.39 | 3.13 ± 0.067
5 | EANADLEVKIRDWHLKQSPASPER [KRT13] | 4.79 ± 0.15 | 4.97 ± 0.27
6 | WKPPDIKGKLMVCYETLPRGQCLL [SPAG8] | 2.27 ± 0.4 | 2.32 ± 0.41
7 | NAKTEQGPTGVTMTSNPITWGQIK [CDK11A] | 4.19 ± 0.16 | 4.12 ± 0.24
8 | DGIDRWIKEIDEHAPGVPRILVGN [RAB40C] | 3.81 ± 0.19 | 3.59 ± 0.26
9 | GFGSKNTAFCTHVFPETAFIAVTS [TBX5] | 2.28 ± 0.42 | 2.09 ± 0.3
10 | DVKTNVQLLKGRVDNISTLDSEIK [CD207] | 3.74 ± 0.48 | 4.01 ± 0.3
11 | QPSFEPTKNKELTDEFRELRATVE [FADS1] | 4.98 ± 0.19 | 4.86 ± 0.35
12 | KHKRQMQDPQLHSPFSGSLHAPPA [VENTX] | 3.98 ± 0.28 | 3.83 ± 0.25
13 | PGAGLRRPTYTPPSIMPQKHWVYV [ZBTB22] | 2.26 ± 0.051 | 2.04 ± 0.27
14 | SQSSYLSQHRRIHSGEKPFICKEC [ZNF232] | 3.36 ± 0.33 | 3.67 ± 0.44
15 | AQTLLRLSGVQRVESVFFGGGTPS [RSAD1] | 2.43 ± 0.27 | 2.47 ± 0.3
16 | WALGCVLYELASLKRAFEAANLPA [NEK8] | 2.99 ± 0.3 | 2.9 ± 0.46
17 | GGIQEGAVTPAGVVNKYQINGLQA [DHCR7] | 3.93 ± 0.27 | 4.17 ± 0.22
18 | VLRCQLSAEEVRFPVSVTQQSPAA [C2CD2L] | 3.3 ± 0.34 | 3.45 ± 0.23
19 | AIGVGQVDFNTLKSIGSEPHEDHV [MATN2] | 4.67 ± 0.24 | 4.88 ± 0.054
20 | AGLLPPVPAQKFSALTFLRVDQDK [SMOC2] | 3.21 ± 0.21 | 3.3 ± 0.29
21 | NVKSEKVYTRHGVPISVTGIAQVK [FLOT1] | 3.52 ± 0.13 | 3.65 ± 0.2
22 | EAPDSLNGPLGPSEASIASNLQAM [SMG5] | 4.99 ± 0.21 | 4.91 ± 0.25

Row | Sequence | protein stability index (treatment: DMSO) | protein stability index (treatment: MLN4924 1 uM, 8 h)
23 | LYLVGFLDLFGVSMVVPLLSLHVK [MFSD9] | 3.61 ± 0.17 | 3.19 ± 0.33
24 | RMLKDNKKNWRRVYKSLLLLAYLI [CLINT1] | 2.45 ± 0.38 | 2.63 ± 0.23
25 | HYGNIMYDRRVIRGNTYALQTGPL [RSPH3] | 2.33 ± 0.1 | 2.13 ± 0.32
26 | SMAKEVIAKELSKTYQETPEIDMF [ZBED1] | 4.11 ± 0.21 | 4.05 ± 0.18
27 | FEHEMEESKKNRVEINDLDPEVFK [SPOPL] | 4.99 ± 0.39 | 5.02 ± 0.32
28 | ILKNLSQVAMRCRCSSMHFLVAEW [SAT1] | 2.4 ± 0.2 | 2.65 ± 0.31
29 | EMLSASRYPTISMVKPLLHMLLNT [ZBED1] | 2.6 ± 0.81 | 3.02 ± 0.79
30 | RTVAVGDIVWGKIHGFPWWPARVL [PWWP2B] | 2.02 ± 0.47 | 2.17 ± 0.23
31 | LWEKVMPSRYAAIYNGGVEAVSTL [SLC19A2] | 2.19 ± 0.22 | 2.07 ± 0.29
32 | LLPLTELSVCPLEGSREHAFQITG [PLEKHN1] | 2.88 ± 0.13 | 2.83 ± 0.24
33 | LPGAVATIVKPLSAIPQPTITKQE [HNF4A] | 4.51 ± 0.24 | 4.54 ± 0.17
34 | VGNNHESWGWDLGRNRLYHDGKNQ [SPSB1] | 3.83 ± 0.33 | 3.87 ± 0.42
35 | GTEYTCKVYPVQEALAVLEPYARL [TRIB3] | 2.62 ± 0.23 | 2.48 ± 0.33
36 | RISHTLYDLDKIIELNGGQPPLTY [CRY1] | 2.38 ± 0.041 | 2.6 ± 0.27
37 | FTSGTGHFTAMVWKNTKKMGVGKA [GLIPR2] | 2.66 ± 0.29 | 2.74 ± 0.2
38 | NTLVTKTMEDTLMTVKQYEAARLE [ARFIP2] | 4.19 ± 0.3 | 4.55 ± 0.23
39 | KKAQGKTQQNRKLTDFYPVRRSSR [KMT5A] | 3.29 ± 0.54 | 3.86 ± 0.39
40 | YSFISLFIYMVLSLFIALITGAYD [MCOLN1] | 3.14 ± 0.48 | 3.22 ± 0.45
41 | VTKMFQKIQDLIDDKDALVFVLID [TRIP13] | 2.72 ± 0.63 | 2.47 ± 0.17
42 | RLVHTTAIEHFQPNADLLFSDPSQ [FCHO1] | 3.78 ± 0.15 | 3.87 ± 0.24
43 | RTAFLWRGNVVLRAQMIRNEYRKL [TRIM43] | 2.66 ± 0.29 | 2.51 ± 0.29
44 | LGSGQFAIVRKCRQKGTGKEYAAK [DAPK3] | 3.55 ± 0.52 | 3.48 ± 0.16

Row | Sequence | protein stability index (treatment: DMSO) | protein stability index (treatment: MLN4924 1 uM, 8 h)
45 | HNRSNNKYSYTSTSDDNLLKNIEL [KCTD13] | 3.66 ± 0.12 | 3.73 ± 0.16
46 | GHSSSVEMFLYFEDHGLVTCSADH [WDR41] | 2.16 ± 0.34 | 2.25 ± 0.29
47 | VLVKDNGLGCKDLDLIFHVALPTE [TENT5C] | 2.58 ± 0.57 | 2.82 ± 0.73
48 | SELRRTMQALEIELQSQLSMKASL [KRT17] | 2.46 ± 0.21 | 2.23 ± 0.2
49 | KAGQPESRALALFDIQKIMQEKNP [ZNF8] | 4.06 ± 0.36 | 4.26 ± 0.12
50 | GCSLHEEDTQRHETYHQQGQCQVL [TCAP] | 4.35 ± 0.14 | 4.32 ± 0.41
51 | TFALYKNGSSEKREVRQFQFTAWP [PTPRD] | 2.29 ± 0.22 | 2.46 ± 0.18
52 | AGGGGFGGGSLSGGGGSRSISASS [KRT15] | 3.89 ± 0.3 | 4 ± 0.21
53 | TLLLQGHHDKVQSLCYLQLTRQLV [WDFY1] | 2.8 ± 0.43 | 2.76 ± 0.38
54 | RFTTSKLQSFEDLASISTYGFRGE [MLH1] | 3.24 ± 0.47 | 3.12 ± 0.36
55 | MPDTFNSRSPSVEGSLWAVGTESQ [PXN] | 4.31 ± 0.16 | 4.38 ± 0.12
56 | MSLRLQSSSASYGGGFGGGSCQLG [KRT13] | 2.54 ± 0.11 | 2.49 ± 0.11
57 | PWEPPVLPILTWPVLQSRTGLVYD [HDAC6] | 3.46 ± 0.51 | 3.35 ± 0.23
58 | RSDLYSSGRDRVGRQERGLPPSME [RBMX] | 4.41 ± 0.091 | 4.51 ± 0.23
59 | AGDGDTSNFETYPENDWDTAAPVP [PRKX] | 5.33 ± 0.33 | 5.14 ± 0.32
60 | QLVRYSADGLLQLGPLGSTAFLPD [GALNT9] | 2.33 ± 0.27 | 2.67 ± 0.3
61 | VKEISDKISKEEMVRRLKMVVKTF [PDS5B] | – | 2.24 ± 0.91
62 | FEPHSGEDYSRDEDHIAHIIELLG [SRPK2] | 3.3 ± 0.19 | 3.63 ± 0.18
63 | ECLKRQGQREPGSLSRNNSFRRNV [FBXO34] | 4.11 ± 0.26 | 4.22 ± 0.18
64 | NAGSYIPSYTSWYPSAHQEAMQQP [DLX1] | 2.76 ± 0.16 | 2.84 ± 0.32
65 | QEITSETEDLCEKPDDEVKETAHD [RIPK4] | 5.6 ± 0.17 | 5.69 ± 0.21

Reference: the supplement of paper PMC10567573
